“Also recorded” adds a separate entry of the source.
Legend:
[1] = tested on: FcγRIIa; test: Phosphorylation of FcγRIIa during platelet activation (immunoprecipitation, Western blot with anti-phosphotyrosine 4G10); assay type: cell-based, human
Experimental: FIGS. 1A-1E are western blots and graphs showing that platelet activation results in FcγRIIa being phosphorylated: Platelets (2×10^8 in 0.5 ml) from low-risk subjects isolated with the use of gel filtration were exposed to no agonist (FIG. 1E) or to thrombin (50 nM) (FIG. 1A), convulxin (10 ng/ml) (FIG. 1B), ADP (25 μM) (FIG. 1C), and PAF (100 nM) (FIG. 1D) for selected intervals before preparation of platelet lysates. FcγRIIa was separated by immunoprecipitation and Western blots were probed with an antiphosphotyrosine antibody (4G10), stripped, and re-probed with anti-FcγRIIa to confirm equal loading (data not shown). Fluorescence intensity of bands was quantified with the use of a Li-Cor system. Results (n=3-5 for each condition) are peak intensity that is not altered by adjusting the contrast of the image or the size of the area of interest, and were compared with those obtained when no agonist was used (Student's t test, *p<0.05, **p<0.01). […]
Immunoprecipitation was performed overnight at 4° C. with the use of goat anti-CD32A/C (Santa Cruz Biotechnology, Santa Cruz, Calif.) or a mouse anti-phosphotyrosine conjugated with magnetic beads (4G10, Millipore, Billerica, Mass.). […] Bands were detected with the use of use of a Li-Cor Odyssey Infrared Imaging system (Li-Cor Biosciences, Lincoln, Nebr.) or chemiluminescence (Amersham/General Electric Healthcare, Piscataway, N.J.).

[2] = tested on: platelets
[3] = target: FcγRIIa on non-fixed human platelets (also as present in platelet lysates) (human) (UniProt P12318); test: cell-based or functional assay
[4] = tested on: Megakaryocyte cell line; test: IFNγ effect on FcγRIIa expression by megakaryocyte cell line; assay type: cell-based; settings: IFNγ treatment, FIG. 10
Excerpt: The graphs on the lower aspect of the figure show evidence of differentiation of the stem cells into megakaryocytes.

[5] = tested on: human stem cell derived Megakaryocytes; test: IFNγ effect on FcγRIIa expression by human stem cell derived megakaryocytes; assay type: cell-based; settings: IFNγ treatment, FIG. 11
Excerpt: The graphs on the lower aspect of the figure show evidence of differentiation of the cells into megakaryocytes.

[6] = target: T1, FcγRIIa on non-fixed human platelets (also as present in platelet lysates) (human, UniProt P12318 34-317); test: immunoprecipitation with platelet lysates
T1 construct: Endogenous receptor of platelets from human subjects; In immunoprecipitation experiments the receptor came from platelet lysates; also called platelet FcγRIIa; CD32
T1 sequence: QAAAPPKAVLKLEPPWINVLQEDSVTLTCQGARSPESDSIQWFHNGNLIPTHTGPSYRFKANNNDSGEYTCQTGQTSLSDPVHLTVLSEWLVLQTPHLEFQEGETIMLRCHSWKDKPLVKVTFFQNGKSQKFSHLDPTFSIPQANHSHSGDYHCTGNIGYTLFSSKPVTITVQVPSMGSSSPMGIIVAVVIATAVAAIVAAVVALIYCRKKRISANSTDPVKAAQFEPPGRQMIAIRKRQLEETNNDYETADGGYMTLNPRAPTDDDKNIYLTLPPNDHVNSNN

[7] = target: T2, FcγRIIa on formaldehyde-fixed human platelets (human, UniProt P12318 34-317, exposed to formaldehyde fixative (residues not stated)); test: fluorochrome labeled antibody on fixed platelets
T2 construct: Same receptor as m3, but on platelets fixed before exposure to the antibody; also called FcγRIIa on fixed platelets
T2 sequence: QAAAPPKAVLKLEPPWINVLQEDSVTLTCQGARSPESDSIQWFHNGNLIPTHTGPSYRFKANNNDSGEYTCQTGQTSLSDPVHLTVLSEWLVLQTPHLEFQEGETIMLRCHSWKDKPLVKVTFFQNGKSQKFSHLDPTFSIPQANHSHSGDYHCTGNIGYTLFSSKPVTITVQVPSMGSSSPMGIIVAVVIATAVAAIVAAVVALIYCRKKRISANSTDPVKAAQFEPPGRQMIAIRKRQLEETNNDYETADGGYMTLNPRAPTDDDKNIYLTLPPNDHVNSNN

[8] = target: T2, FcγRIIa on formaldehyde-fixed human …; test: platelets of two subjects, fixed (FIG. 29)
[9] = target: T1, FcγRIIa on non-fixed human platelets …; test: platelets of two subjects, non-fixed (FIG. 29)
[10] = target: T3, FcγRIIa on platelets (Homo sapiens, UniProt P12318); test: Flow cytometry binding/quantification of FcγRIIa on fixed and non-fixed platelets; settings: FIG. 29
T3 construct: endogenous in cells; host or cells: platelets from subjects' blood samples, formaldehyde-fixed or non-fixed
T3 sequence (P12318 34-317): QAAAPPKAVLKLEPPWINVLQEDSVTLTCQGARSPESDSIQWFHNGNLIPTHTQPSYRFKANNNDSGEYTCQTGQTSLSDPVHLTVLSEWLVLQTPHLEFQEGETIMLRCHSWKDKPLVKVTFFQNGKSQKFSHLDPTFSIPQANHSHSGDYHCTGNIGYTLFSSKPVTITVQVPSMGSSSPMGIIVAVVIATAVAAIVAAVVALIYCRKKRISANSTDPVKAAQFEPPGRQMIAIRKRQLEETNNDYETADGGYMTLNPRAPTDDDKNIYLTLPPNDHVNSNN
Excerpt: One objective was to identify an antibody that was capable of quantifying FcγRIIa on the surface of platelets that were fixed, similar to quantification of FcγRIIa on non-fixed platelets. To make this assessment, selected antibodies were fluorochrome labeled. An objective was to identify a clone that could quantify FcγRIIa on the surface of fixed platelets within 10% of the quantification of previously-known antibodies on non-fixed platelets. Based on these experiments, two clones were identified, they produced the antibodies FcYRIIa-5G1 and FcYRIIa-11F9 described above.
Lysis of red blood cells can also be performed by the addition of 3% acetic acid (120 μl) to 5 μl of blood. • Incubate for 15 minutes • Add 800 μl PBS • Centrifuge for 2 minutes at 1,200 g • Decant liquid • Re-suspend platelet pellet in 1,000 μl PBS • Centrifuge for 2 minutes at 1,200 g • Decant liquid • Re-suspend platelet pellet in 1,000 μl PBS • Centrifuge for 2 minutes at 1,200 g • Re-suspend platelet pellet in 800 μl PBS with 0.2% BSA and store platelets at room temperature for at least 1 hour before assay (blocking step) • Assay tube final volume=35 μl, adding: • 5 μl of re-suspended platelet • 0.5 μg of 5G1-PE antibody • 2 μl of CD42bPECy5 (Becton Dickinson) • QS with PBS/BSA 0.2% • Incubate antibodies and platelets for 1 hours at room temperature • Dilute with 500 μl of PBS • Analyze with flow cytometry
• Analyze platelet samples using template 032522 FCquant 5G1R-PE 375V_T. Set acquisition volume to 200 ul and run samples at 200 ul/min. count 10,000 events in platelet gate (CD42b positive events). • Platelets are first gated on a FSC SSC plot • A second gate for CD42b PECY5 positive events is created • A histogram plot gated on the CD42b positive events is created. A gate is set to the right of a non-immune IgG control. The x-mean of the histogram gate positive for 5G1R-PE binding is reported • Assay tube for IgG control, adding: • 5 μl of re-suspended platelet • 2 μl of IgG-PE • 2 μl of CD42bPECy5 (Becton Dickinson) • 26 μl PBS/BSA 0.2% […]

With `Nc1ncnc2c1ncn2[C@@H]1O[C@H](COP(=O)(O)OP(=O)(O)O)[C@@H](O)[C@H]1O` [ADP, adenosine diphosphate] the “time after exposure at which phosphorylation of FcγRIIa was greatest” value ([1]; platelets from low-risk subjects, thrombin 50 nM, convulxin 10 ng/ml, ADP 25 μM, PAF 100 nM) was 3 to 5 min.

With `CC(C)(C)n1nc(-c2ccc(Cl)cc2)c2c(N)ncnc21` [PP2] the “phosphorylation of FcγRIIa during platelet activation” value ([1]; IV.3 Fab 100 μg/ml, PP2 20 μM) was “prevented phosphorylation of FcγRIIa”.

With `CCCCS(=O)(=O)N[C@@H](Cc1ccc(OCCCCC2CCNCC2)cc1)C(=O)O` [tirofiban] the “agonist-induced activation of platelets” value ([2]; agonists thrombin, convulxin, ADP, PAF, PAC-1 binding or P-selectin, IV.3 100 μg/ml, PP2 20 μM, tirofiban 0.5 μg/ml) was “did not attenuate the activation of platelets”, the “activation of platelets caused by coagulation Factor XIII” value ([2]; summary in words) was “abolished” and the “amplification of platelet activation induced by fibrinogen” value ([2]; summary in words) was “not by tirofiban”. For the same molecule, the “binding of PAC-1 to platelets” value ([2]; tirofiban 0.5 μg/ml) was “blocked completely the binding of PAC-1 to platelets; also recorded: abolished binding of PAC-1 to platelets” and the “agonist-induced surface expression of P-selectin” value ([2]; tirofiban, n=3 subjects, FIG. 5D) was “did not attenuate agonist-induced P-selectin expression”.

Molecule Fab fragment of IV.3 has an ADP induced activation of platelets with added fibrinogen after pretreatment with IV.3 (100 µg/ml), fold induction [3] of 0.9 fold and an ADP-induced activation of platelets with added Factor XIII after pretreatment with IV.3 (100 µg/ml), fold induction [3] of 0.7 fold.

In the case of “IFNγ: cytokine that increases FcγRIIa expression by megakaryocytes”, the “expression of FcγRIIa by Megakaryocyte cell line” value [4] is reported as “increases the expression of FcγRIIa” and the “expression of FcγRIIa by human stem cell derived Megakaryocytes” value [5] is reported as “increases the expression of FcγRIIa”.

Work on “coagulation Factor XIII (from UniProt P00488 2-732) (enzyme)” yielded an ADP-induced activation of platelets (surface expression of P-selectin), fold induction [3] of 3.9 fold.

“fibrinogen (from UniProt P02671 20-629; P02675 31-491; P02679 27-437)” was tested, and the ADP induced activation of platelets (surface expression of P-selectin), fold induction [3] was 1.5 fold.

B1: Antibody FcYRIIa-11F9 (antibody, V domains shown)
VH: EVQLQESGPELVKPGASVRISCKASGYTFTNSYMHWVKQRPGQGLEWIGWIYPENINTYYNEKFKGKATLTADRSSSTAYMQLNSLASEDSAVYFCARFYYGFGYWGQGTTLTVSS
VL: DIVMTQSHKFMSTSVGDRVIITCKASQNVISAVAWYQQKPGHSPKLLIYWASTRHTGVPDRFTGSGSGTDFTLTINSVQSEDLADYFCQQYGRYPYTFAGGTKLEIK
notes: Monoclonal antibody from a mouse hybridoma; also called 11F9 antibody
B1: binds [6]; binds [7].

B2: Antibody FcYRIIa-5G1 (antibody, V domains shown)
VH: EVQLQESGPELVKPGASVKISCKASGYTFTTYYIHWVKQRPGQGLEWIGWIFPGSSNTFYNEKFKGKATLTADTSAITAYMQLNSLTSEDSAVYFCSRYYYDYGYWGQGTLVTVSA
VL: ENVLTQSPAIMSASPGEKVTMTCSASSSVRYMQWYQQKSNTSPKLWIYDTSKLASGVPGRFSGSGSGNSYFLTISSMEAEDVATYHCFQGSGYPLTFGGGTKLEIK
notes: Monoclonal antibody from a mouse hybridoma; Fluorochrome (phycoerythrin) labelled for flow cytometry; also called 5G1 antibody; 5G1-PE
B2: binds [8]; binds [9].

B3: FcYRIIa-5G1: monoclonal antibody binding FcγRIIa; heavy chain SEQ ID NO 4, light chain SEQ ID NO 9 (antibody, V domains shown)
VH: EVQLQESGPELVKPGASVKISCKASGYTFTTYYIHWVKQRPGQGLEWIGWIFPGSSNTFYNEKFKGKATLTADTSAITAYMQLNSLTSEDSAVYFCSRYYYDYGYWGQGTLVTVSA
VL: ENVLTQSPAIMSASPGEKVTMTCSASSSVRYMQWYQQKSNTSPKLWIYDTSKLASGVPGRFSGSGSGNSYFLTISSMEAEDVATYHCFQGSGYPLTFGGGTKLEIK
With B3 the “binding to FcγRIIa on fixed platelets compared with non-fixed platelets” value [10] was “binds to a greater extent to FcγRIIa on fixed platelets”, the “binding to FcγRIIa on fixed platelets” value ([10]; fixed platelets, two subjects) was “binds at a higher level on fixed platelets” and the “binding to FcγRIIa on non-fixed platelets versus commercially available antibody FLI8.26” value ([10]; non-fixed platelets, two subjects) was “binds to a lesser extent than the commercially available antibody”.

From patent publication US20260055190A1, “ANTIBODIES FOR PLATELET FCyRIIA AND RELATED METHODS OF USE” (UNIVERSITY OF VERMONT AND STATE AGRICULTURAL COLLEGE, priority 2022, published 2026)
